Measurements taken from the supplement of paper PMC10724198.
± gives the standard deviation of the averaged measurements.

Tests used:
[1] = test system: Saccharomyces cerevisiae; experiment: protein stability index of tFT-peptide fusion (C-terminal peptide) (PSI (0-1 scale)); higher = more stable (slower turnover)
Method: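 MPS profiling in S. cerevisiae of the tFT-X12 degron library: putative degron peptides plus stable controls, 12 aa, fused to the C-terminus of a sfGFP-mCherry timer. Cells are FACS-sorted into 8 mCherry/sfGFP bins and deep-sequenced. PSI runs from 0 (unstable) to 1 (stable). Backgrounds are wild type, das1Δ and doa10Δ at 30 °C, and wild type, das1Δ, cdc34-1 and cdc53-1 at 37 °C; 2-3 technical replicates each.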

[2] = test system: Saccharomyces cerevisiae; experiment: as above; details: genetic background: wild type; temperature: 30 C
[3] = genetic background: cdc34-1, temperature: 37 C
[4] = genetic background: cdc53-1, temperature: 37 C
[5] = genetic background: das1 deletion, temperature: 30 C
[6] = genetic background: das1 deletion, temperature: 37 C
[7] = genetic background: doa10 deletion, temperature: 30 C
[8] = genetic background: wild type, temperature: 30 C
[9] = genetic background: wild type, temperature: 37 C
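Further: PSI is a weighted mean of sequencing reads over stability bins, variants kept only with over 10 reads, mCherry proximal and sfGFP distal, peptide attached via GGGS linker.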

Row | Sequence | protein stability index [1, 3] | protein stability index [1, 4] | protein stability index [1, 5] | protein stability index [1, 6] | protein stability index [1, 7] | protein stability index [1, 8] | protein stability index [1, 9] | protein stability index [2]
1 | PLCCFFLLVCSH | 0.117 ± 0.022 | 0.166 ± 0.005 | 0.193 ± 0.019 | 0.2814 ± 0.002 | 0.165 ± 0.0015 | 0.176 ± 0.0079 | 0.221 ± 0.014 | 0.246 ± 0.023
2 | PLFPPTDSPSPN | 0.7098 ± 0.0063 | 0.729 ± 0.051 | 0.668 ± 0.025 | 0.724 ± 0.018 | 0.685 ± 0.025 | 0.648 ± 0.015 | 0.709 ± 0.029 | 0.727 ± 0.03
3 | PLFVLTILLFLC | 0.165 ± 0.042 | 0.314 ± 0.036 | 0.258 ± 0.051 | 0.367 ± 0.017 | 0.156 ± 0.0098 | 0.137 ± 0.013 | 0.179 ± 0.0024 | 0.1706 ± 0.00068
4 | PLGGLVILLLSS | 0.488 ± 0.017 | 0.541 ± 0.0075 | 0.349 ± 0.028 | 0.548 ± 0.014 | 0.194 ± 0.0033 | 0.224 ± 0.017 | 0.4074 ± 0.00071 | 0.293 ± 0.014
5 | PLLALTSWLFFV | 0.5467 ± 0.0033 | 0.6521 ± 0.0011 | 0.586 ± 0.012 | 0.689 ± 0.022 | 0.165 ± 0.0048 | 0.173 ± 0.0033 | 0.268 ± 0.0046 | 0.254 ± 0.008
6 | PLPHTPAPPPFP | 0.6774 ± 0.0011 | 0.728 ± 0.0098 | 0.6492 ± 0.0043 | 0.721 ± 0.036 | 0.674 ± 0.034 | 0.676 ± 0.033 | 0.6992 ± 0.0033 | 0.508 ± 0.043
7 | PLSRLLPLYFLL | 0.405 ± 0.015 | 0.547 ± 0.00061 | 0.548 ± 0.017 | 0.66444 ± 0.00057 | 0.0797 ± 0.0046 | 0.0647 ± 0.0097 | 0.0945 ± 0.018 | 0.0966 ± 0.0083
8 | PPHPLHIPRRLA | 0.631 ± 0.025 | 0.724 ± 0.026 | 0.691 ± 0.02 | 0.743 ± 0.017 | 0.185 ± 0.0086 | 0.218 ± 0.022 | 0.436 ± 0.048 | 0.226 ± 0.033
9 | PPLSRLAVFIVV | 0.4397 ± 0.0027 | 0.487 ± 0.052 | 0.359 ± 0.036 | 0.524 ± 0.008 | 0.3027 ± 0.0018 | 0.353 ± 0.025 | 0.4823 ± 0.003 | 0.4605 ± 0.0023
10 | PPRPSPPPHPLP | 0.658 ± 0.028 | 0.7181 ± 0.0022 | 0.6737 ± 0.003 | 0.727 ± 0.011 | 0.681 ± 0.017 | 0.686 ± 0.01 | 0.6974 ± 0.0035 | 0.746 ± 0.059
11 | PPVRCVRLPLSS | 0.687 ± 0.035 | 0.744 ± 0.0097 | 0.649 ± 0.029 | 0.717 ± 0.01 | 0.647 ± 0.015 | 0.6376 ± 0.0037 | 0.689 ± 0.0054 | 0.63 ± 0.26
12 | PRFRALLLIPVR | 0.0611 ± 0.016 | 0.158 ± 0.029 | 0.178 ± 0.046 | 0.281 ± 0.022 | 0.14 ± 0.026 | 0.17 ± 0.018 | 0.24 ± 0.033 | 0.27 ± 0.012
13 | PRGFVRVDLLIF | 0.302 ± 0.021 | 0.481 ± 0.07 | 0.273 ± 0.027 | 0.442 ± 0.017 | 0.191 ± 0.0062 | 0.208 ± 0.031 | 0.37 ± 0.022 | 0.383 ± 0.064
14 | PRGKGSSGELCV | 0.683 ± 0.038 | 0.7344 ± 0.0044 | 0.662 ± 0.025 | 0.707 ± 0.03 | 0.6363 ± 0.0063 | 0.647 ± 0.033 | 0.712 ± 0.012 | 0.578 ± 0.15
15 | PRPISRRTLILS | 0.642 ± 0.047 | 0.7053 ± 0.0034 | 0.545 ± 0.026 | 0.721 ± 0.0088 | 0.308 ± 0.0098 | 0.354 ± 0.023 | 0.554 ± 0.02 | 0.472 ± 0.062
16 | PRVPILVVFCSF | 0.423 ± 0.013 | 0.452 ± 0.014 | 0.286 ± 0.041 | 0.532 ± 0.016 | 0.22 ± 0.0097 | 0.257 ± 0.02 | 0.463 ± 0.048 | 0.402 ± 0.063
17 | PSFVEVAFAVCC | 0.569 ± 0.037 | 0.555 ± 0.039 | 0.347 ± 0.045 | 0.5575 ± 0.0034 | 0.339 ± 0.03 | 0.366 ± 0.0077 | 0.541 ± 0.019 | 0.451 ± 0.058
18 | PTKRLFNNNKKI | 0.589 ± 0.13 | 0.686 ± 0.057 | 0.649 ± 0.03 | 0.731 ± 0.013 | 0.184 ± 0.0066 | 0.161 ± 0.03 | 0.408 ± 0.024 | 0.308 ± 0.015
19 | PWAQCVLLWVVV | 0.459 ± 0.043 | 0.495 ± 0.021 | 0.397 ± 0.032 | 0.5401 ± 0.0014 | 0.329 ± 0.015 | 0.359 ± 0.025 | 0.4776 ± 0.004 | 0.457 ± 0.0064
20 | PWIASCRISFLL | 0.6766 ± 0.0032 | 0.734 ± 0.014 | 0.6 ± 0.0099 | 0.7393 ± 0.0037 | 0.338 ± 0.0046 | 0.347 ± 0.012 | 0.532 ± 0.029 | 0.402 ± 0.0046

Row | Sequence | protein stability index [1, 3] | protein stability index [1, 4] | protein stability index [1, 5] | protein stability index [1, 6] | protein stability index [1, 7] | protein stability index [1, 8] | protein stability index [1, 9] | protein stability index [2]
21 | QARVFWIIIGTA | 0.33 ± 0.029 | 0.412 ± 0.03 | 0.241 ± 0.029 | 0.482 ± 0.011 | 0.163 ± 0.011 | 0.194 ± 0.026 | 0.376 ± 0.023 | 0.343 ± 0.0078
22 | QFLSLSLPFALF | 0.7057 ± 0.0026 | 0.763 ± 0.014 | 0.64 ± 0.029 | 0.748 ± 0.054 | 0.428 ± 0.041 | 0.45 ± 0.019 | 0.636 ± 0.052 | 0.524 ± 0.036
23 | QHIDTLAKTHIT | 0.73 ± 0.036 | 0.74493 ± 0.00055 | 0.632 ± 0.008 | 0.7219 ± 0.005 | 0.605 ± 0.03 | 0.634 ± 0.033 | 0.7 ± 0.012 | 0.606 ± 0.15
24 | QTGRVRGFVVSG | 0.689 ± 0.037 | 0.726 ± 0.024 | 0.632 ± 0.032 | 0.723 ± 0.02 | 0.645 ± 0.021 | 0.65 ± 0.008 | 0.719 ± 0.028 | 0.701 ± 0.048
25 | RALCPVPLLASS | 0.55 ± 0.0098 | 0.59 ± 0.034 | 0.435 ± 0.026 | 0.5981 ± 0.00094 | 0.427 ± 0.026 | 0.455 ± 0.018 | 0.553 ± 0.024 | 0.502 ± 0.1
26 | RCFLPVFCFVVF | 0.275 ± 0.0069 | 0.272 ± 0.0068 | 0.242 ± 0.037 | 0.413 ± 0.006 | 0.278 ± 0.014 | 0.227 ± 0.023 | 0.36 ± 0.0038 | 0.314 ± 0.018
27 | RDWCYFIRVCSV | 0.604 ± 0.064 | 0.616 ± 0.017 | 0.479 ± 0.026 | 0.6139 ± 0.006 | 0.364 ± 0.015 | 0.382 ± 0.021 | 0.561 ± 0.01 | 0.383 ± 0.12
28 | RFACHDFVVLLC | 0.568 ± 0.023 | 0.605 ± 0.022 | 0.453 ± 0.017 | 0.626 ± 0.026 | 0.172 ± 0.0095 | 0.17 ± 0.029 | 0.303 ± 0.017 | 0.289 ± 0.0045
29 | RFFLFVFFCFGF | 0.384 ± 0.0046 | 0.387 ± 0.038 | 0.383 ± 0.034 | 0.4787 ± 0.0021 | 0.402 ± 0.0047 | 0.365 ± 0.045 | 0.437 ± 0.013 | 0.436 ± 0.014
30 | RFLCFDSVLTLC | 0.626 ± 0.011 | 0.6674 ± 0.0055 | 0.56 ± 0.028 | 0.6748 ± 0.00086 | 0.32119 ± 0.00015 | 0.348 ± 0.026 | 0.546 ± 0.02 | 0.463 ± 0.024
31 | RFQKTRIFRCLC | 0.455 ± 0.002 | 0.66 ± 0.015 | 0.57 ± 0.022 | 0.6796 ± 0.0058 | 0.0979 ± 0.0052 | 0.117 ± 0.015 | 0.137 ± 0.0058 | 0.18 ± 0.028
32 | RFTCCISLSFLM | 0.498 ± 0.013 | 0.492 ± 0.044 | 0.467 ± 0.011 | 0.472 ± 0.014 | 0.491 ± 0.059 | 0.489 ± 0.033 | 0.4341 ± 0.0021 | 0.489 ± 0.01
33 | RFTFSVVFCLSF | 0.465 ± 0.011 | 0.5 ± 0.018 | 0.432 ± 0.011 | 0.504 ± 0.023 | 0.451 ± 0.022 | 0.436 ± 0.026 | 0.47 ± 0.012 | 0.47 ± 0.038
34 | RGDWPVFIQVKA | 0.285 ± 0.032 | 0.309 ± 0.04 | 0.262 ± 0.035 | 0.426 ± 0.022 | 0.205 ± 0.022 | 0.255 ± 0.043 | 0.387 ± 0.023 | 0.418 ± 0.05
35 | RGGGGGTWVKMG | 0.592 ± 0.011 | 0.733 ± 0.0075 | 0.653 ± 0.029 | 0.758 ± 0.012 | 0.118 ± 0.025 | 0.135 ± 0.02 | 0.217 ± 0.016 | 0.258 ± 0.055
36 | RHCCIVPLCRVR | 0.491 ± 0.061 | 0.512 ± 0.013 | 0.324 ± 0.028 | 0.555 ± 0.028 | 0.285 ± 0.013 | 0.321 ± 0.028 | 0.507 ± 0.0081 | 0.464 ± 0.045
37 | RHSFSRVKLIQF | 0.593 ± 0.046 | 0.6834 ± 0.00096 | 0.65 ± 0.032 | 0.732 ± 0.0089 | 0.0871 ± 0.021 | 0.0925 ± 0.033 | 0.117 ± 0.0029 | 0.113 ± 0.033
38 | RILKEFKRIAVL | 0.501 ± 0.05 | 0.687 ± 0.092 | 0.479 ± 0.024 | 0.7193 ± 0.006 | 0.093 ± 0.0061 | 0.0985 ± 0.016 | 0.139 ± 0.032 | 0.168 ± 0.031
39 | RIYIRVSLIAPR | 0.523 ± 0.026 | 0.59 ± 0.05 | 0.48 ± 0.021 | 0.5646 ± 0.0015 | 0.496 ± 0.034 | 0.48 ± 0.014 | 0.537 ± 0.017 | 0.509 ± 0.14
